# According to US20240043507A1:
# How the values were obtained:
# [1] = target: SARS-CoV-2 spike receptor binding domain K417T (SARS-CoV-2) (UniProt P0DTC2); assay: BLI, RBD on AR2G biosensor, mAb as analyte
# [2] = target: spike protein of SARS-CoV-2 strain B.1.351 (SARS-CoV-2) (UniProt P0DTC2); assay: cell-based or functional assay
# [3] = target: SARS-CoV-2 receptor binding domain with N501Y (SARS-CoV-2) (UniProt P0DTC2); assay: BLI, RBD immobilised on AR2G biosensor, 1:1 fit
# [4] = target: SARS-CoV-2 spike protein on authentic virus, strain B.1.1.7 (SARS-CoV-2) (UniProt P0DTC2); assay: cell-based or functional assay
# [5] = target: SARS-CoV-2 spike protein on authentic virus, strain SARS-CoV-2/human/AUS/VIC01/2020 (Victoria) (SARS-CoV-2) (UniProt P0DTC2); assay: cell-based or functional assay
Substance,"IC50 (FRNT, live virus neutralisation) [2] [µg/mL]",Kd [3] [nM],other results
AZD1061 (antibody),0.014,–,Kd [1]: 8 nM
AZD1061 as tested by BLI (Fab by the footnote of Table 12),–,1.41,–
AZD7442 (a combination of AZD1061 and AZD8895),–,–,"B.1.1.7/Victoria Ratio of IC50 [4]: 0.77; IC50 (ug/ml), FRNT [4]: 0.007 µg/mL; IC50 (ug/ml), FRNT [5]: 0.009 µg/mL"
AZD8895 (antibody),0.046,–,–
AZD8895 as tested by BLI (Fab by the footnote of Table 12),–,2.44,–
REGN10933 (antibody),3.28,–,–
REGN10933 as tested by BLI (Fab by the footnote of Table 12),–,2.75,–
REGN10987 (antibody),0.007,–,–
REGN10987 as tested by BLI (Fab by the footnote of Table 12),–,3.09,–
